Experimental data reported in patent US12673115B2, “Nucleic acid-peptide-nucleic acid conjugate molecules and methods of making the same” (ARIZONA BOARD OF REGENTS ON BEHALF OF ARIZONA STATE …, priority 2021, dated 2026).
Square brackets hold non-standard residues; d marks the D form. Primed or numbered codes have the meaning given here. Lys(N3) = [N-]=[N+]=NCCCC[C@H](N)C(=O)O; prA″ = not defined here

Columns and labels:
[1] = target: T1, human matrix metalloproteinase 8 (MMP8) (Homo sapiens, UniProt P22894); assay: Cleavage of peptide-linked DX tile dimer by MMP8, native PAGE; format: biochemical; conditions: 4 ng protein, incubation for 48 h at 37° C. in PBS
T1 construct: purchased PerkinElmer
T1 sequence (P22894 101-467): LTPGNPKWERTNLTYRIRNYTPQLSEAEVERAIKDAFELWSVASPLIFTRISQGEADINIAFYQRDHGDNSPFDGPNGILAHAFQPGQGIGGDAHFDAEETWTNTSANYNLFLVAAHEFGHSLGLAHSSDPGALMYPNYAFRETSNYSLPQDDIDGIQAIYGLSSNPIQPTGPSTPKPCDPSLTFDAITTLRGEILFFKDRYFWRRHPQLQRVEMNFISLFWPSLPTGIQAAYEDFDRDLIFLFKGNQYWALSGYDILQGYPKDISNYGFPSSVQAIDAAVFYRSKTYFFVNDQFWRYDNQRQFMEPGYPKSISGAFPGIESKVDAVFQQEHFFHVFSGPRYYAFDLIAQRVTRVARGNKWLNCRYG
Text: As previously mentioned, one of our goals for these DPD triblock molecules is to use them as enzymatically-cleavable latches for a DNA nanostructure, e.g. to close the lid of a DNA origami box or “nano-bot”. To probe this effect, we used our DPD triblock to link together two model DNA nanostructures: double crossover (“DX” tiles), defined nanoscale objects 14 nm in length and 4 nm wide. DX tiles are composed of five unique strands—two edge strands, one central strand, and two crossover strands—and we designed two tiles that would have DNA1 and DNA2 as respective crossover strands (see FIG. 3A and Examples for tile design and strand composition). We surmised that upon annealing (95-4° C., over 2 h) the constituent strands for these tiles with the DNA1-MMPpep-DNA2 conjugate both tiles would form simultaneously, with the full hybridization of DNA1 and DNA2 into the corresponding tiles breaking the DPD hairpin. Addition of MMP8 to the DX tile dimer should cleave MMPpep, and restore the two separate DNA nanostructures.
We probed this system by native (non-denaturing) PAGE, FIG. 3A. Lanes 1 and 2 show the annealed DX tile with DNA2 incorporated, and the second DX tile with DNA1-MMPpep-(prA) respectively. […]
Polyacrylamide gel electrophoresis (PAGE). […] DX tiles were analyzed using 6% native polyacrylamide gels, with 1×TAE containing 12.5 mM Mg^2+ as a running buffer, at 200 V for 160 min.

integrin = conditions: cyclic conformation approximating presentation on fibronectin; cited from earlier work

Substance | cleavage of DX tile dimer to individual tiles after addition of MMP8 [1] | increase in binding efficiency on constraining in a cyclic conformation (integrin)
(prA)GQGIPQGWGG(azK) ({prA″}-GQGIPQGWGG[Lys(N3)]-NH2; not fully specified; printed as (prA)GQGIPQGWGG(azK); reading uncertain) [MMPpep-scram, tested as linker of a tile dimer] | did not show any cleavage to individual tiles | 
RGDS |  | several orders of magnitude
